Experimental data as given in patent US20100204147A1, “Methods For Delivering Thymosin Beta 4, Analogues, Isoforms and Other Derivatives” (REGENERX BIOPHARMACEUTICALS, INC., priority 2003, published 2010).

Tests used:
fibrin = biological target: T1, fibrin (Homo sapiens, UniProt P02671); test: Solid-phase binding assay (ELISA), immobilized fibrin
T1 construct: purchased Enzyme Research Laboratories (South Bend, Ind.); host or cells: fibrin generated in the well or tube from the purchased fibrinogen with bovine thrombin
T1 sequence (P02671 36-629 limits assumed): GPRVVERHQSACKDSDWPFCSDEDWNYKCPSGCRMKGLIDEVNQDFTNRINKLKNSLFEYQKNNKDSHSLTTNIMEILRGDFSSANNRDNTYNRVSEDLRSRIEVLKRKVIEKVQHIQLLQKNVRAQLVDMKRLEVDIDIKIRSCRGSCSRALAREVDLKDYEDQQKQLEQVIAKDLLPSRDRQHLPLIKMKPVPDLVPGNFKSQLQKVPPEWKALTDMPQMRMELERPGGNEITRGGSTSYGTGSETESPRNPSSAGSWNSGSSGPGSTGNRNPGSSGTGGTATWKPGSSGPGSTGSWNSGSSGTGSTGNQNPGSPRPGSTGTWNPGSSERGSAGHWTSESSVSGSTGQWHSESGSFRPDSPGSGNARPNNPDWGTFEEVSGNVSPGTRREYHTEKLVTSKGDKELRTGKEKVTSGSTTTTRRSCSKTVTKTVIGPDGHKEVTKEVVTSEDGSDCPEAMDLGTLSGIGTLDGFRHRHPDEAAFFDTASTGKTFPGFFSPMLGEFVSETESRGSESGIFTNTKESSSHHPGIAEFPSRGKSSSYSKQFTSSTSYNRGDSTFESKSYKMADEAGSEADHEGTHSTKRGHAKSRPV
T1 sequence (P02675 45-491 partner limits assumed): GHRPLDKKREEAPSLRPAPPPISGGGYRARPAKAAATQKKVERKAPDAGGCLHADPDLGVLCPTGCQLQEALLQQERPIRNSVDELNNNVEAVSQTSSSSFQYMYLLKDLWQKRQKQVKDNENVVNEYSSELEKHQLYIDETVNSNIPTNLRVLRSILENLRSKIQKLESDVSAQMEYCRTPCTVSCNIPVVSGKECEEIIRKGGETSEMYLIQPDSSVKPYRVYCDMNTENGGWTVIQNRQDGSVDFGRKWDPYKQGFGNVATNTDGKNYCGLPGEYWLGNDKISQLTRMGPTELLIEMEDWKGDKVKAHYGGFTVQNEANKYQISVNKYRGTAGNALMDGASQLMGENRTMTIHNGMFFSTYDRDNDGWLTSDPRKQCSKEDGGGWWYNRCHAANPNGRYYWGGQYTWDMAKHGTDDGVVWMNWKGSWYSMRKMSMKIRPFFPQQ
T1 sequence (P02679 27-437 isoform P02679-2 partner limits assumed): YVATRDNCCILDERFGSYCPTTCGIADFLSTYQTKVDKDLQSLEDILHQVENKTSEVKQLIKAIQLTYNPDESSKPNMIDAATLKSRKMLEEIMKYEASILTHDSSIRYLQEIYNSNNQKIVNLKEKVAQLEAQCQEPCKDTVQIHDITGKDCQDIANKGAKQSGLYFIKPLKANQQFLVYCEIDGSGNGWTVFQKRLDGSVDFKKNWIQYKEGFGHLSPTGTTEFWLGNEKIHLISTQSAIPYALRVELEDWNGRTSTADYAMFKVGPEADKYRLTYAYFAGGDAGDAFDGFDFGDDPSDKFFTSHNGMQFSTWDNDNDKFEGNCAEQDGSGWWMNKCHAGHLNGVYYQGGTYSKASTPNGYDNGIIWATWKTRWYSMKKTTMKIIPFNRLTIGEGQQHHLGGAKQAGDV
Method: (§1) The interaction between thymosin β4 and fibrin(ogen) and its fragments in the presence or absence of FXIIIa was studies by ELISA using plastic microliter plates. Wells of microliter plates were coated overnight at […] with fibrinogen and fibrin at 10 μg/mL or with the recombinant fragments of 20 μg/ml, all in 0.1 M NaHCO3 buffer, pH 8.3. Fibrin was made by addition to the wells of a mixture containing 10 μg/mL fibrinogen 1 NIH u/ml thrombin and 400 u/ml aprotinin, followed by overnight incubation at +4° C. The wells were then blocked by incubation with Super Blocker (Pierce) at 37° C. for 1 h. Following washing with TBS containing 0.05% Tween-20 (TBS-Tween), the indicated concentrations of thymosin β4, FXIII, FXIIIa(Thr) and FXIIIa(Ca) were added to the wells and incubated for 2-2.5 h at 37° C. Bound (incorporated) thymosin β4 was detected by the reaction with rabbit anti-thymosin β4 serum and peroxidase-conjugated anti-rabbit IgG. A TMB Microwell Peroxidase Substrase was added to the wells, and the incorporated thymosin β4 was measured spectrophotometrically at 450 nm.

[1] = biological target: T2, αC-domain (residues Aα221-610) (Homo sapiens, UniProt P02671); test: ELISA and kinetic analysis of incorporation into immobilized αC-domain; assay type: biochemical
T2 construct: human fibrinogen αC-domain (residues Aα221-610); made in house; host or cells: E. coli, pET20b expression vector
T2 sequence (P02671 240-629): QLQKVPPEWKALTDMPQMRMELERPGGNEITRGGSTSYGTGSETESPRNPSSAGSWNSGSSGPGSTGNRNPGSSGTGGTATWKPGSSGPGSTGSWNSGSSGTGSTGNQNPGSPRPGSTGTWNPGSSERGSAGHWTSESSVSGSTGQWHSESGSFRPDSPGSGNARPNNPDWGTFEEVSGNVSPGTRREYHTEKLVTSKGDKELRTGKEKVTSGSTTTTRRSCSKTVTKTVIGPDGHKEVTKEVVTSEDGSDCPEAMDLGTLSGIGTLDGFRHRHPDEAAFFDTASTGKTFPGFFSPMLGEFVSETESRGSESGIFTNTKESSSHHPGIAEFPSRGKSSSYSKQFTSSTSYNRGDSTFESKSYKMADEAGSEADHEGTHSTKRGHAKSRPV
Method: as §1
To analyze kinetics of the incorporation of thymosin β4 into different fibrin(ogen) fragments, they were immobilized onto the wells of microliter plates (as described above, except that the concentration of all fragments was 20 μg/mL) and incubated with several concentrations of thymosin β4 in the presence of 10 μg/L thrombin-activated factor XIIIa. The incubation mixtures were inhibited every 15 min during 1 hour of incubation by the addition of iodacetamide to final concentration 10 mM. Incorporated thymosin β4 at each time point was detected with rabbit anti-thymosin β4 serum as described above. The initial rates of the reaction of incorporation (V) at different concentrations of thymosin β4 were determined from the slopes of the reaction time course plots and expressed as tangent α=A450/t (min), where A450 represents absorbance at 450 nm in optical units (o.u) which is proportional to the amount of incorporated thymosin β4. […]

thymosin β4 was tested, and the “non-covalent interaction with immobilized fibrin (ELISA signal)” value (fibrin; absence of factor XIII or non-activated factor XIII) was “no significant non-covalent interaction”, the “factor XIIIa-mediated incorporation into immobilized fibrin (ELISA signal)” value (fibrin; factor XIII activated by CaCl2) was “higher than that into fibrinogen” and the “non-covalent interaction with αC-domain (ELISA)” value ([1]; non-activated factor XIII or without it) was “no significant non-covalent interaction”. The “incorporation into immobilized αC-domain (ELISA)” value ([1]; presence of factor XIIIa) was “incorporated effectively” and the Km ([1]; thrombin-activated factor XIIIa, Lineweaver-Burk plot, read-out: apparent Michaelis constant (Km) for incorporation into the αC-domain) was 17.6 ± 2.5 µM.
